{"source": "the nanobody polyreactivity screen of Harvey et al. (2022)", "data": [{"test": "yeast display, Sf9 membrane polyspecificity reagent, FACS + sequencing; frameworks hold sequencing errors", "procedure,_shortened": "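Galactose induction of a Saccharomyces cerevisiae BJ5465 synthetic nanobody display library ran 36–48 hours. The cells were then stained for 1 hour at 4 °C with 10% biotinylated, detergent-solubilized Sf9 membrane reagent, pulled down on streptavidin microbeads and FACS-sorted into low and high (top ~1%) gates on expression and reagent-binding fluorescence. Labels for polyreactivity follow the gate of origin.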", "values": [{"sequence": "QVQLVESGGGLVQAGGSLRLSCAASGFTFYGNAMGWYRQAPGKERELVASISTYYADSVKGRFTISRDNAKNTVYLQMNSLKPEDTAVYYCAATHYDRTFYVIYDYWGQGTQVTVSS", "polyreactivity (PSR sort gate)": "low polyreactivity"}, {"sequence": "QVQLVESGGGLVQAGGSLRLSCAASGFTFYGYAMGRYRQAPGKERELVAAITFRGDRTYYADSVKGRFTISRDNAKNTVYLQMNSLKPEDTAVYYCAAERPSGWYSDLSLYIGRRGYWGQGTQVTVSS", "polyreactivity (PSR sort gate)": "low polyreactivity"}, {"sequence": "QVQLVESGGGLVQAGGSLRLSCAASGFTFYGYGMGWYRQAPGKERELVAGISSGGGSTFYADSVKGRFTISRDNAKNTVYLQMNSLKPEDTAVYYCAALHYGGYFSYYPYYYWGQGTQVTVSS", "polyreactivity (PSR sort gate)": "low polyreactivity"}, {"sequence": "QVQLVESGGGLVQAGGSLRLSCAASGFTFYHNAMGWYRQAPGKERELVAAISGGGDSTYYADSVKGRFTISRDNAKNTVYLQMNSLKPEDTAVYYCATRRYPEVVNGEYGYWGQGTQVTVSS", "polyreactivity (PSR sort gate)": "low polyreactivity"}, {"sequence": "QVQLVESGGGLVQAGGSLRLSCAASGFTFYHYAMGWYRPAPGKERELVAAITWSGGDTYYADSEKGRFTSSRDNAKNTVYLQMNSLKPEDTAVYYCNADDPPGAPYYDSFDYRGDYWGQGTQRTVSS", "polyreactivity (PSR sort gate)": "low polyreactivity"}, {"sequence": "QVQLVESGGGLVQAGGSLRLSCAASGFTFYHYAMGWYRQAPGTERELVASITRSGASTYYADSVKGRFTSSRDNAKNTVYLQMNSLKPEDTAVYYCNKVRYTSSIWTYYYWGQGTQVTVSS", "polyreactivity (PSR sort gate)": "high polyreactivity"}, {"sequence": "QVQLVESGGGLVQAGGSLRLSCAASGFTFYKNTMGWYRQAPGKERELVAAISSSGSSTYYADSVKGRFTISRDNAKNTVYLQMNSLKPEDTAVYYCAAGRFAYHDDYWGQGTQVTVSS", "polyreactivity (PSR sort gate)": "high polyreactivity"}, {"sequence": "QVQLVESGGGLVQAGGSLRLSCAASGFTFYKNTMGWYRQAPGKVRELVAAISSSGSSTYYADSVKGRFTISRDNAKNTVYLQMNSLKPEDTAVYYCAAGRFAYHDDYWGQGTHVTVSS", "polyreactivity (PSR sort gate)": "high polyreactivity"}, {"sequence": "QVQLVESGGGLVQAGGSLRLSCAASGFTFYKYAMGGYRQEPGKERELVATITISGITNYADSVKGRFTISRDNAKNTVYLQMNSLKPEDTAVYYCATVGPWPGEYDYWGQGTQVTVSS", "polyreactivity (PSR sort gate)": "low polyreactivity"}, {"sequence": "QVQLVESGGGLVQAGGSLRLSCAASGFTFYKYTMGWYRQAPGKERELVAAISARGGSTYYADSVKGRFTISRDNAKNTVYLQMNSLKPEDTAVYYCAADYWRTYVLGYDYWGQGTQVTVSS", "polyreactivity (PSR sort gate)": "high polyreactivity"}, {"sequence": "QVQLVESGGGLVQAGGSLRLSCAASGFTFYKYVMGWYRQAPGKERELVAAITTSGGSTYYADSVKGRFTISRDNAKNTVYLQMNSLKPEDTAVYYCNARSLHTSEGDYWGQGTQVTVSS", "polyreactivity (PSR sort gate)": "low polyreactivity"}, {"sequence": "QVQLVESGGGLVQAGGSLRLSCAASGFTFYLYALGWYRQAPGKERELVAAITYSGGSTYYADSVKGRFTISRDNAKNTVYLQMNSLKPEDTAVYYCAADARGKVYWGQGTQVTVSS", "polyreactivity (PSR sort gate)": "high polyreactivity"}, {"sequence": "QVQLVESGGGLVQAGGSLRLSCAASGFTFYLYAMGWYRQAPGKEREFVASISYRGTSTYYADSVKGRCTISRDNAKNTVYLQMNSLKPEDTAFYYCAARPSYYRTGYGYWGQGTQVTVSS", "polyreactivity (PSR sort gate)": "high polyreactivity"}, {"sequence": "QVQLVESGGGLVQAGGSLRLSCAASGFTFYLYSMGWYRQAPGKERELVATITSDGGTNYADSVKGRFSISRDNAKNTVYLQMNSLTPEDTAVYYCNAASRRGSRKQAKYDYWGQGTQVTVSA", "polyreactivity (PSR sort gate)": "low polyreactivity"}, {"sequence": "QVQLVESGGGLVQAGGSLRLSCAASGFTFYPNTMGWYRQAPGKERELVAAISSSGGRTYYSDSVKGRFTISRDNAKNTVYLQMNSLKPEDTAVYYCNAAKWLTSGGLDYWGIGTQVTVSS", "polyreactivity (PSR sort gate)": "high polyreactivity"}, {"sequence": "QVQLVESGGGLVQAGGSLRLSCAASGFTFYPYAMGWYRQAPGKERELVAAIRISGGSTYYADSVKGRFTISRDTAKNTVYLQMNSLKPEDTAVYYCAAKYPYYSSYAYGYWGQGTQVTVSS", "polyreactivity (PSR sort gate)": "high polyreactivity"}, {"sequence": "QVQLVESGGGLVQAGGSLRLSCAASGFTFYPYAMGWYRQAPGKERELVAGITRGGSTNYADSVKGRFTISRDNAKNTVYLQMNSLKPEDTAVYYCAAKYGPYFRRLDYWGQGTQVTVSS", "polyreactivity (PSR sort gate)": "high polyreactivity"}, {"sequence": "QVQLVESGGGLVQAGGSLRLSCAASGFTFYPYAMGWYRQAPGKERELVASISWSGGSTYYADSVKGRFTISRDNAKNTVYFQMNSLKPEDTAVYYCNAEYWLPYYPDYDFWGQGTQVTVSS", "polyreactivity (PSR sort gate)": "low polyreactivity"}, {"sequence": "QVQLVESGGGLVQAGGSLRLSCAASGFTFYPYAMGWYRQAPGKERELVATISSGGTTNYADSVKGRFTISRDNAKNTVYLQMNSLKPEDTAVYYCAADYIRLFGPFDYWGQGTQVTVSS", "polyreactivity (PSR sort gate)": "low polyreactivity"}, {"sequence": "QVQLVESGGGLVQAGGSLRLSCAASGFTFYPYARGWYRQAPGKERELVAAISNGDSTHYADSVKGRFTISRDNAKNTVYLQMNSLKPQDTAVYYCNAYTRYPFYFVTSKYDYWGQGNQVTVSS", "polyreactivity (PSR sort gate)": "low polyreactivity"}, {"sequence": "QVQLVESGGGLVQAGGSLRLSCAASGFTFYPYTMGWYRQAPGKERELVAAISSSGGSTYYADSVKGRFTISRDNAMNTVYLQMNSLKPEDTAVYYCATRSWGPYYYGYNHWGQGSQVTVSS", "polyreactivity (PSR sort gate)": "high polyreactivity"}, {"sequence": "QVQLVESGGGLVQAGGSLRLSCAASGFTFYQYAMGWYRQAPGKERELVAAISSSGTSTYYADSVKGRFTISRDNAKNTVYLQMNSLKPEDTAVYYCAARRYKLFYWGQGTQVTVSS", "polyreactivity (PSR sort gate)": "low polyreactivity"}, {"sequence": "QVQLVESGGGLVQAGGSLRLSCAASGFTFYRNAMGWYRQAPGKEWELVAGITRSGGSTYYADSVKGRFTISRDNAKNTVYLQMNSLKPEDTAVYYCNKAYGGDKYSGTYDYWGQGTQVTVSS", "polyreactivity (PSR sort gate)": "high polyreactivity"}, {"sequence": "QVQLVESGGGLVQAGGSLRLSCAASGFTFYRNAMGWYRQAPRKERDLVAAISDSGGRTYYADSVKGRFTISRDNAMNTVYLQMNSLIPEDTAVYYCAADTVIWWVEYEYWGQGTQVTVSS", "polyreactivity (PSR sort gate)": "high polyreactivity"}, {"sequence": "QVQLVESGGGLVQAGGSLRLSCAASGFTFYRYAMGWYRQAPGKERELVAAITGGGSTYYADSVKGRFTISRDNAKNTVYLQMNSLKPEDTAVYYCNADIRAYTVLTGGYIYDYWGQGTQVTVSS", "polyreactivity (PSR sort gate)": "high polyreactivity"}, {"sequence": "QVQLVESGGGLVQAGGSLRLSCAASGFTFYRYAMGWYRQAPGKERELVAAITKSSGRTYYADSVKGRFTISRDNAQITVYLQINSLKPEDTAVYYCNAYYVALPPNMDYWGQGTQVTVSS", "polyreactivity (PSR sort gate)": "high polyreactivity"}, {"sequence": "QVQLVESGGGLVQAGGSLRLSCAASGFTFYRYAMGWYRQAPGKERELVAAITWSGGSTYYADSVKGRFTISRDNAKNTVYLQMNSLKPVDTAVYYCAADIYDGGFDYWGQGTQVTVSS", "polyreactivity (PSR sort gate)": "low polyreactivity"}, {"sequence": "QVQLVESGGGLVQAGGSLRLSCAASGFTFYRYAMGWYRQAPGKERELVASIRWGGGSTYYADSVKGRFTISRDNAKNTFYLEMNSLKPEDTAVYYCAAYFGYTVGRYNYWGQGTQVTVSS", "polyreactivity (PSR sort gate)": "high polyreactivity"}, {"sequence": "QVQLVESGGGLVQAGGSLRLSCAASGFTFYRYAMGWYRQAPGKERELVASISWRGGNTYYADSVKGRFTISRDNAKNTVYLQMNSLKPEDTAVYYCAAGRSRIPSLLDYWGQGTQVTVSS", "polyreactivity (PSR sort gate)": "high polyreactivity"}, {"sequence": "QVQLVESGGGLVQAGGSLRLSCAASGFTFYRYTMGWYIQAPGKERELVAAISARGVSTYYADSVKGRFTISRDIAKNTVYLQMNSLKPEDTAVYYCYVSRYDSWGQGTQVTVSS", "polyreactivity (PSR sort gate)": "high polyreactivity"}, {"sequence": "QVQLVESGGGLVQAGGSLRLSCAASGFTFYSNAMGWYRQAPGKERELVAAITGRGGRTYYADSVKGRFTISRDNAKNTVYLQMNSLKPEDTAVYYCAAVYHVSTWGGRYYFRQGYDYWGQGTQVTVSS", "polyreactivity (PSR sort gate)": "high polyreactivity"}, {"sequence": "QVQLVESGGGLVQAGGSLRLSCAASGFTFYSNAMGWYRQAPGKERELVAAITSGGNTNYADSVKGRFTISRDNAKNTVYLQMNSLKPEDTAVYYCAAYPPSQRAEYDFWGQGTQVTVSS", "polyreactivity (PSR sort gate)": "low polyreactivity"}, {"sequence": "QVQLVESGGGLVQAGGSLRLSCAASGFTFYSYAMGWYRQAPGKERELVAAISRSGTTTYYADSVKGRFTISRDNAKNTVYLQMNSLKPEDTAVYYCAARTTSSSLTPSLYYWGQGTQVTVSS", "polyreactivity (PSR sort gate)": "high polyreactivity"}, {"sequence": "QVQLVESGGGLVQAGGSLRLSCAASGFTFYSYAMGWYRQAPGKERELVAAITKRGGSTSYADSVKGRFTISRDNAKNTVYLQMNSLKPEDTAVYYCNRRATKAQYGDEVDYWGQGTQVTVSS", "polyreactivity (PSR sort gate)": "high polyreactivity"}, {"sequence": "QVQLVESGGGLVQAGGSLRLSCAASGFTFYSYAMGWYRQAPGKERELVAVISKRGGSTRYADSVKGRFTISRDNAKNTVYLQMNSLKPEDTAVYYCNADQHSITYNEFDYWGQGTQVTVSS", "polyreactivity (PSR sort gate)": "low polyreactivity"}, {"sequence": "QVQLVESGGGLVQAGGSLRLSCAASGFTFYSYDMGWYRQAPGKERELVAVITERGSSTYYADSVKGRFTISRDNAKNTVYLQMNSLKPEDTAVYYCAAYSEYYGVYYWGQGTQVTVSS", "polyreactivity (PSR sort gate)": "low polyreactivity"}, {"sequence": "QVQLVESGGGLVQAGGSLRLSCAASGFTFYTKAMGWYRQAPGKERELVAGINSGSSTYYADSVKGRFTISRDNAKNTVYLQMNSLKPEDTAVYYCAARRSRYILRGFGYWGQGTQVTVSS", "polyreactivity (PSR sort gate)": "high polyreactivity"}, {"sequence": "QVQLVESGGGLVQAGGSLRLSCAASGFTFYTNAMGWYRQAPGKERDMVAVITSGGNTYYADSVKGRFTISRDNAKNTVYLQMNSLKPEDTAVYYFAAIPKRPIRFDYWGQGTQVTVSS", "polyreactivity (PSR sort gate)": "high polyreactivity"}, {"sequence": "QVQLVESGGGLVQAGGSLRLSCAASGFTFYTNAMGWYRQATGKERELVAVITSGGNTYYADSVKGRFTISRDNAKYTVYLQMNSLKPEDTAVYYCAAKPKRPIRFDYWGQGTQVTVSS", "polyreactivity (PSR sort gate)": "high polyreactivity"}, {"sequence": "QVQLVESGGGLVQAGGSLRLSCAASGFTFYTYAMGWYRQAPGKERELVAAITGSGGRTYYADSVKGRFTISRDNAKNTVYLQMNSLKPEDTAVYYCAALYVYRPRTPYGYWGQGTQVTVSS", "polyreactivity (PSR sort gate)": "high polyreactivity"}, {"sequence": "QVQLVESGGGLVQAGGSLRLSCAASGFTFYTYAMGWYRQAPGKERELVAAITSSGGSTYYADSVKGRFTISRDHAKNTVYLQMNSLKPEDTAVYYCKAVSYYLGDDYWGPGTQVTVSS", "polyreactivity (PSR sort gate)": "high polyreactivity"}, {"sequence": "QVQLVESGGGLVQAGGSLRLSCAASGFTFYVNAMGWYRQAPGKEREFVAAISSSGASTRYADSVKGRFTISRDNAKNTVYLQMNSLKPEDTAVYYCAADAPAWILEAYGYWGQGTQVTVSS", "polyreactivity (PSR sort gate)": "low polyreactivity"}, {"sequence": "QVQLVESGGGLVQAGGSLRLSCAASGFTFYVNAMGWYRQAPGKERELVAAITDDGDSTYYADSVKGRFTISRDNAKNTVYLQMNSLKPEDTAVYYCNTVYGPDLYGTEYDYWGQGTQVTVSS", "polyreactivity (PSR sort gate)": "low polyreactivity"}]}]}
